# Test results from PMC6271572, “One-step affinity purification of fusion proteins with optimal monodispersity and biological activity: application to aggregation-prone HPV E6 proteins” (Microbial Cell Factories, 2018).
# Several values for one entry are separate records, joined by “and”; a condition that tells them apart may be missing. Identical values can stand only once.
# B1: MBP-fused HPV8 E6 (natural protein)
# chain: MDGQDKASNLDTNKDELPSTIKELAEALGIPLQDCLVPCNFCGNFLDFLELCEFDKKRLCLIWKNYVVTACCRCCCVATATFEFNEYYEQTVLGRDIELATGRSIFEIDVRCQNCLSFLDIIEKLDCCGRGRPFHKVRGGWKGVCRLCKHLYHDW
# notes: Printed order of the fusion: MBP-6His-TEV site-E6 (vector pETM-41, NcoI/Acc65I sites); tags were not cleaved off; Expected MW 60.9 kDa; also called MBP-8E6; not shown: MBP, N-terminal, kept
# How the values were obtained:
# [1] = biological target: E6AP LXXLL motif (Homo sapiens) (UniProt Q05086); experiment: SPR; settings: cited from earlier work
# [2] = biological target: E6APwt, 16-mer LXXLL motif peptide of E6AP; experiment: SPR; Biacore T200, 25 °C; biotinylated peptide reversibly captured on CAP chip (Biotin CAPture kit), MBP-E6 as analyte in two-fold dilutions from 10 µM; Tris 50 mM pH 8, NaCl 400 mM, DTT 2 mM, 0.005% polysorbate 20; steady-state analysis, 1:1 model; protein samples purified on resin N1 or N2
# [3] = biological target: the molecule itself; experiment: SEC; analytical SEC on Superdex 200 Increase 5/150 GL in Buffer A (Tris 50 mM pH 8, NaCl 400 mM, DTT 2 mM), A280; monomer and oligomer peaks assigned by column calibration; samples from different resins, elution methods and contact times
molecule,measurement,setting,value
HPV16 E6 (from UniProt P03126),Kd,[1],4.15 µM
MBP-fused HPV16 E6 F47R 4C/4S (natural protein),Kd,[2],1.6 µM and 2 µM
B1,binding result,[3],binds
